{"source": "patent US10703784B2", "about": "“Antigens and epitopes derived from Mycobacterium tuberculosis” (priority 2011, dated 2020)", "molecules": {"B1": {"name": "Rv0297: MTB protein, novel CD4 T cell antigen; PE/PPE (protein, listed as Mycobacterium tuberculosis)", "chain": "MSFVIAQPEMIAAAAGELASIRSAINAANAAAAAQTTGVMSAAADEVSTAVAALFSSHAQAYQAASAQAAAFHAQVVRTLTVDAGAYASAEAANAGPNMLAAVNAPAQALLGRPLIGNGANGAPGTGQAGGDGGLLFGNGGNGGSGAPGQAGGAGGAAGFFGNGGNGGDGGAGANGGAGGTAGWFFGFGGNGGAGGIGVAGINGGLGGAGGDGGNAGFFGNGGNGGMGGAGAAGVNAVNPGLATPVTPAANGGNGLNLVGVPGTAGGGADGANGSAIGQAGGAGGDGGNASTSGGIGIAQTGGAGGAGGAGGDGAPGGNGGNGGSVEHTGATGSSASGGNGATGGNGGVGAPGGAGGNGGHVSGGSVNTAGAGGKGGNGGTGGAGGPGGHGGSVLSGPVGDSGNGGAGGDGGAGVSATDIAGTGGRGGNGGHGGLWIGNGGDGGAGGVGGVGGAGAAGAIGGHGGDGGSVNTPIGGSEAGDGGKGGLGGDGGGRGIFGQFGAGGAGGAGGVGGAGGAGGTGGGGGNGGAIFNAGTPGAAGTGGDGGVGGTGAAGGKGGAGGSGGVNGATGADGAKGLDGATGGKGNNGNPG"}, "B2": {"name": "Rv0299: MTB protein, novel CD4 T cell antigen; Conserved hypotheticals (protein, listed as Mycobacterium tuberculosis)", "chain": "MIAPGDIAPRRDSEHELYVAVLSNALHRAADTGRVITCPFIPGRVPEDLLAMVVAVEQPNGTLLPELVQWLHVAALGAPLGNAGVAALREAASVVTALLC"}, "B3": {"name": "Rv3012c: MTB protein, novel CD4 T cell antigen; Information pathways (protein, listed as Mycobacterium tuberculosis)", "chain": "MSQISRDEVAHLARLARLALTETELDSFAGQLDAILTHVSQIQAVDVTGVQATDNPLKDVNVTRPDETVPCLTQRQVLDQAPDAVDGRFAVPQILGDEQ"}, "B4": {"name": "Rv3025c: MTB protein, novel CD4 T cell antigen; Intermediary metabolism and respiration, Island 2 (protein, listed as Mycobacterium tuberculosis)", "chain": "MAYLDHAATTPMHPAAIEAMAAVQRTIGNASSLHTSGRSARRRIEEARELIADKLGARPSEVIFTAGGTESDNLAVKGIYWARRDAEPHRRRIVTTEVEHHAVLDSVNWLVEHEGAHVTWLPTAADGSVSATALREALQSHDDVALVSVMWANNEVGTILPIAEMSVVAMEFGVPMHSDAIQAVGQLPLDFGASGLSAMSVAGHKFGGPPGVGALLLRRDVTCVPLMHGGGQERDIRSGTPDVASAVGMATAAQIAVDGLEENSARLRLLRDRLVEGVLAEIDDVCLNGADDPMRLAGNAHFTFRGCEGDALLMLLDANGIECSTGSACTAGVAQPSHVLIAMGVDAASARGSLRLSLGHTSVEADVDAALEVLPGAVARARRAALAAAGASR"}, "B5": {"name": "Rv0278c: MTB protein, novel CD4 T cell antigen; PE/PPE (protein, listed as Mycobacterium tuberculosis)", "chain": "MSFVIAAPEVIAAAATDLASLGSSISAANAAAAANTTALMAAGADEVSTAIAALFGAHGQAYQALSAQAQAFHAQFVQALTSGGGAYAAAEAAAVSPLLDPINEFFLANTGRPLIGNGANGAPGTGANGGDGGWLIGNGGAGGSGAAGVNGGAGGNGGAGGNGGAGGLIGNGGAGGAGGVASSGIGGSGGAGGNAMLFGAGGAGGAGGGVVALTGGAGGAGGAGGNAGLLFGAAGVGGAGGFTNGSALGGAGGAGGAGGLFATGGVGGSGGAGSSGGAGGAGGAGGLFGAGGTGGHGGFADSSFGGVGGAGGAGGLFGAGGEGGSGGHSLVAGGDGGAGGNAGMLALGAAGGAGGIGGDGGTLTAGGIGGAGGAGGNAGLLFGSGGSGGAGGFGFADGGQGGPGGNAGTVFGSGGAGGNGGVGQGFAGGIGGAGGTPGLIGNGGNGGNGGASAVTGGNGGIGGTGVLIGNGGNGGSGGIGAGKAGVGGVSGLLLGLDGFNAPASTSPLHTLQQNVLNVVNEPFQTLTGRPLIGNGANGTPGTGADGGAGGWLFGNGANGTPGTGAAGGAGGWLFGNGGNGGHGATNTAATATGGAGGAGGILFGTGGNGGTGGIATGAGGIGGAGGAGGVSLLIGSGGTGGNGGNSIGVAGIGGAGGRGGDAGLLFGAAGTGGHGAAGGVPAGVGGAGGNGGLFANGGAGGAGGFNAAGGNGGNGGLFGTGGTGGAGTNFGAGGNGGNGGLFGAGGTGGAAGSGGSGITTGGGGHGGNAGLLSLGASGGAGGSGGASSLAGGAGGTGGNGALLFGFRGAGGAGGHGGAALTSIQQGGAGGAGGNGGLLFGSAGAGGAGGSGANALGAGTGGTGGDGGHAGVFGNGGDGGCRRVWRRYRRQRWCRRQRRADRQRRQRRQRRQSRGHARCRRHRRAAARRERTQRLAIAGRPATTRGVEGISCSPQMMP"}, "B6": {"name": "Rv0279c: MTB protein, novel CD4 T cell antigen; PE/PPE (protein, listed as Mycobacterium tuberculosis)", "chain": "MSFVIAAPEVIAAAATDLASLESSIAAANAAAAANTTALLAAGADEVSTAVAALFGAHGQAYQALSAQAQAFHAQFVQALTSGGGAYAAAEAAATSPLLAPINEFFLANTGRPLIGNGTNGAPGTGANGGDGGWLIGNGGAGGSGAAGVNGGAGGNGGAGGLIGNGGAGGAGGRASTGTGGAGGAGGAAGMLFGAAGVGGPGGFAAAFGATGGAGGAGGNGGLFADGGVGGAGGATDAGTGGAGGSGGNGGLFGAGGTGGPGGFGIFGGGAGGDGGSGGLFGAGGTGGSGGTSIINVGGNGGAGGDAGMLSLGAAGGAGGSGGSNPDGGGGAGGIGGDGGTLFGSGGAGGVCGLGFDAGGAGGAGGKAGLLIGAGGAGGAGGGSFAGAGGTGGAGGAPGLVGNAGNGGNGGASANGAGAAGGAGGSGVLIGNGGNGGSGGTGAPAGTAGAGGLGGQLLGRDGFNAPASTPLHTLQQQILNAINEPTQALTGRPLIGNGANGTPGTGADGGAGGWLFGNGGNGGHGATGADGGDGGSGGAGGILSGIGGTGGSGGIGTTGQGGTGGTGGAALLIGSGGTGGSGGFGLDTGGAGGRGGDAGLFLGAAGTGGQAALSQNFIGAGGTAGAGGTGGLFANGGAGGAGGFGANGGTGGNGLLFGAGGTGGAGTLGADGGAGGHGGLFGAGGTGGAGGSSGGTFGGNGGSGGNAGLLALGASGGAGGSGGSALNVGGTGGVGGNGGSGGSLFGFGGAGGTGGSSGIGSSGGTGGDGGTAGVFGNGGDGGAGGFGADTGGNSSSVPNAVLIGNGGNGGNGGKAGGTPGAGGTSGLIIGENGLNGL"}, "B7": {"name": "Rv0298: MTB protein, novel CD4 T cell antigen; Conserved hypotheticals (protein, listed as Mycobacterium tuberculosis)", "chain": "MTKEKISVTVDAAVLAAIDADARAAGLNRSEMIEQALRNEHLRVALRDYTAKTVPALDIDAYAQRVYQANRAAGS"}, "B8": {"name": "Rv0442c: MTB protein, novel CD4 T cell antigen; PE/PPE (protein, listed as Mycobacterium tuberculosis)", "chain": "MTSPHFAWLPPEINSALMFAGPGSGPLIAAATAWGELAEKLLASIASLGSVTSELTSGAWLGPSAAAMMAVATQYLAWLSTAAAQAEQAAAQAMAIATAFEAALAATVQPAVVAANRGLMQLLAATNWFGQNAPALMDVEAAYEQMWALDVAAMAGYHFDASAAVAQLAPWQQVLRNLGIDIGKNGQINLGFGNTGSGNIGNNNIGNNNIGSGNTGTGNIGSGNTGSGNLGLGNLGDGNIGFGNTGSGNIGFGITGDHQMGFGGFNSGSGNIGFGNSGTGNVGLFNSGSGNIGIGNSGSLNSGIGTSGTINAGLGSAGSLNTSFWNAGMQNAALGSAAGSEAALVSSAGYATGGMSTAALSSGILASALGSTGGLQHGLANVLNSGLTNTPVAAPASAPVGGLDSGNPNPGSGSAAAGSGANPGLRSPGTSYPSFVNSGSNDSGLRNTAVREPSTPGSGIPKSNFYPSPDRESAYASPRIGQPVGSE"}}}
{"test_system": "PBMCs from LTBI donors (IFN-γ production)", "assay_type": "cell-based, human", "conditions": "fraction of 28 LTBI donors responding to epitopes of the antigen, ex vivo IFN-γ ELISPOT", "units": {"Resp. freq.": "%"}}
{"molecule": "B1", "Resp. freq.": 14}
{"molecule": "B2", "Resp. freq.": 14}
{"molecule": "B3", "Resp. freq.": 14}
{"molecule": "B4", "Resp. freq.": 14}
{"molecule": "B5", "Resp. freq.": 11}
{"molecule": "B6", "Resp. freq.": 11}
{"molecule": "B7", "Resp. freq.": 11}
{"molecule": "B8", "Resp. freq.": 11}
{"test_system": "PBMCs from LTBI donors (IFN-γ production)", "assay_type": "cell-based, human", "conditions": "total spot-forming cells, LTBI donors, ex vivo IFN-γ ELISPOT", "units": {"Total SFC": "SFC"}}
{"molecule": "B1", "Total SFC": 154}
{"molecule": "B2", "Total SFC": 467}
{"molecule": "B3", "Total SFC": 233}
{"molecule": "B4", "Total SFC": 423}
{"molecule": "B5", "Total SFC": 45}
{"molecule": "B6", "Total SFC": 45}
{"molecule": "B7", "Total SFC": 783}
{"molecule": "B8", "Total SFC": 232}
